Where a chain is given by its changes, count along the chain named. Read-outs that look alike come from different tables or passages of the source. Ends that are not written are not given here. * marks the point of attachment. Biotin = O=C1N[C@H]2[C@H](CS[C@H]2CCCCC(=O)*)N1 Bounds are passed on as bounds.

Assay [1] has as its target T1, human A-beta(1-40) peptide, monomeric (BAM) (human, biotin at the C-terminus in capture ELISA, SPR and TR-FRET; not biotinylated where coated directly (Example 7)).
T1 construct: synthetic peptide (Anaspec), TFA/HFIP treated to give monomer; also called monomeric A-beta
Description: ABII002 TR-FRET competition assay.

For assay [2], the target named is T1, human A-beta(1-40) peptide, monomeric …. As to the kind of experiment: ABII002 TR-FRET competition assay. This is another data set of the same source.
Assay [3] has the same target. Description: ABII050 TR-FRET competition assay. On the technique in general: TR-FRET usually uses a lanthanide donor and a delayed reading to cut background.
Assay [4] has the same target. Description: TR-FRET competition, labelled ABII60A10.
In assay [5] the target is T2, pGlu-A-beta(1-28), C-terminally biotinylated (human, pyroglutamate formed from the glutamate at position 3 (N-terminus); biotin at the C-terminus).
T2 construct: printed as pGlu-A-beta(1-28), while the text says that the first two N-terminal residues are missing; range 3-28 is my reading; also called pyroglutamyl-Abeta
As to the kind of experiment: SPR on captured C-terminally biotinylated pGlu-A-beta(1-28), 1:1 model.
Description: Association and dissociation curves can be fitted using a 1:1 interaction model and an accurate KD value can be determined.

Assay [6] addresses T3, aggregated A-beta(1-40) peptide (BAA) (human).
T3 construct: also called A-beta peptide aggregates
Description: BAA ELISA. (In general: In an ELISA, binding on a coated surface is turned into a signal by an enzyme label.)

Assay [7] has as its target T1, human A-beta(1-40) peptide, monomeric …. As to the kind of experiment: BAM ELISA.
Assay [8] deals with T3, aggregated A-beta(1-40) peptide (BAA). Description: BAA ELISA. The source holds these as a separate data set.
Assay [9] concerns the target T1, human A-beta(1-40) peptide, monomeric …. As to the kind of experiment: BAM ELISA. The source holds these as a separate data set.
For assay [10] the target is unchanged. Description: cell-based or functional assay.
Assay [11] shares this target. As to the kind of experiment: TR-FRET competition; extrapolated curve.
Assay [12] has the same target. Description: TR-FRET competition, labelled ABII60A10; extrapolated curve.
Another assay has as its target T4, A-beta(12-28) peptide (human).
T4 construct: Bachem peptide captured on streptavidin chip; also called monomeric A-beta(12-28); central region
T4 peptide: Biotin-VHHQKLVFFAEDVGSNK
As to the kind of experiment: SPR on captured A-beta(12-28).

For assay [13], the target named is T1, human A-beta(1-40) peptide, monomeric …. As to the kind of experiment: TR-FRET competition, labelled ABII60A10. The source holds these as a separate data set.
The target is the same in assay [14]. Description: SPR (Biacore T100), periplasmic extracts on captured biotinylated A-beta(1-40), 1:1 model.
Description: (§1) After capturing, surfaces are blocked by injecting an excess (200 μg/ml) of d-biotin for 180 s at 5 μl/min. A reference surface is washed and blocked with d-biotin. HBS-EP+buffer is used as the running buffer and experiments are performed at 25° C. For off-rate screening, periplasmic extracts of VHHs are injected at a 10-fold dilution for 2 min at 45 μl/min and are allowed to dissociate for 10 min. […] Between different VHH samples, the surfaces are regenerated with regeneration buffer (50 mM NaOH) for 25 s at 45 μl/min followed by 10 s 6M GuHCl at 45 μl/min if regeneration is incomplete. […] Data are double referenced by subtraction of the curves on the reference channel and of a blank running buffer injection. Sensorgrams are evaluated by fitting a 1:1 dissociation model using the Biacore T100 Evaluation software v1.1.1.
Assay [15] shares this target. Description: TR-FRET competition.
The target is the same in assay [16]. As to the kind of experiment: TR-FRET competition. The source holds these as a separate data set.
In the next assay the target is T5, A-beta(1-16) peptide (human).
T5 construct: Bachem peptide captured on streptavidin chip; also called monomeric A-beta(1-16)
T5 peptide: DAEFRHDSGYEVHHQK-biotin
Description: SPR on captured A-beta(1-16).

For assay [17], the target named is T1, human A-beta(1-40) peptide, monomeric …. Description: TR-FRET competition, labelled ABII42D4.
The target is the same in assay [18]. Description: TR-FRET competition, labelled ABII42D4. The source holds these as a separate data set.
Assay [19] shares this target. As to the kind of experiment: 42D4 TR-FRET assay (labelled ABII42D4).
Assay [20] shares this target. Description: 60A10 TR-FRET assay (labelled ABII60A10).
The target is the same in assay [21]. As to the kind of experiment: SPR, captured C-terminally biotinylated A-beta(1-40), 1:1 model.
Description: as §1
The target of assay [22] is T6, mouse A-beta(1-40) peptide (mouse).
T6 construct: Bachem peptide coated directly; also called rodent A-beta(1-40)
T6 peptide: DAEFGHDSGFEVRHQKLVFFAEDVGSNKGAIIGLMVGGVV
Description: ELISA EC50.

The target of assay [23] is T1, human A-beta(1-40) peptide, monomeric …. As to the kind of experiment: TR-FRET competition and SPR.
Assay [24] has the same target. Description: ELISA, peptide coated at 2 µg/ml, anti-myc detection.
Assay [25] concerns the target T6, mouse A-beta(1-40) peptide. The description is as above.
Assay [26] concerns the target T1, human A-beta(1-40) peptide, monomeric …. Description: TR-FRET competition, mean IC50; mean IC50 of Table XII.
The target is the same in assay [27]. Description: cell-based or functional assay. This is another data set of the same source.
Assay [28] has the same target. Description: TR-FRET competition, mean IC50.
Assay [29] has the same target. As to the kind of experiment: TR-FRET competition; labelled competitor not given.
Assay [30] concerns the target T7, human A-beta peptide (residues 1-24) (human).
T7 construct: used for co-crystallisation; also called A-beta(1-24)
As to the kind of experiment: crystal structure.
Description: The complex is concentrated by diafiltration to a concentration of 4 mg/ml. Crystallization trials are set up as sitting drop vapour diffusion experiments by mixing 200 nl of protein with 200 nl of reservoir solution against a reservoir volume of 100 μl. […] Data are collected at the beamline 6SA of the swiss light source at the Paul-Scherrer Institute in Villigen, Switzerland.

Assay [31] concerns the target T1, human A-beta(1-40) peptide, monomeric …. Description: ELISA, format not stated.

T7 sequence (peptide, as listed by the source): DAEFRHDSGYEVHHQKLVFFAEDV
T2 sequence (peptide, as listed by the source): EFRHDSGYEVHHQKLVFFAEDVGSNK
Description for A-beta(1-16) peptide: as §1
Description for A-beta(12-28) peptide: as §1

B1: ABII315-PEG20 (designed binder)
chain: EVQLLESGGGLVQPGGSLRLSCAASGRTFNNYNMGWFRQAPGKGREFVAAVSRSGVSTYYADSVKGRFTISRDNSKNTVYLQMNSLRPEDTAVYYCAAAYRGTAINVRRSYSSWGQGTLVTVSSGGGGCGGGSEVQLLESGGGLVQPGGSLRLSCVHSGPTFRTDTMGWFRQAPGKGREFVAAVTWNSGRINYADSVKGRFTISRDNSKNTAYLQMNSLRPEDTAVYYCAAHRFVVGGNRVEDWRYWGQGTLVTVSS
modifications: PEG20 on the Cys at position 5 of the 9GS linker
notes: 059-9GSC-035; purified as His6-tagged construct before PEGylation
On to B1, for which, in assay [1], the “fold improved IC50 against monovalent ABII035” value came out at 27 fold and the “fold improved potency against 3D6 IgG” value stood at 14.6 fold. In [2], this molecule had an IC50 of 0.13 nM. Besides, the half-maximal inhibitory concentration (IC50) in [3] was found to be 0.28 nM.

B2: monoclonal antibody m266 (IgG) (antibody, V domains shown)
VH: EVKLVESGGGLVQPGGSLKLSCAVSGFTFSRYSMSWVRQTPEKRLELVAQINSVGNSTYYPDTVKGRFTISRDNAEYTLSLQMSGLRSDDTATYYCASGDYWGQGTTLTVSS
VL: DVVMTQTPLSLPVSLGDQASISCRSSQSLIYSDGNAYLHWFLQKPGQSPKLLIYKVSNRFSGVPDRFSGSGSGTDFTLKISRVETEDLGVYFCSQSTHVPWTFGGGTKLEIK
notes: also called IgG m266; IgG266
Regarding B2, the figures for the IC50 in assay [3] and in assay [4] were 0.53 nM and 0.5 nM, respectively. In [5], this molecule displayed a Kd of 0.224 nM.

B3: reference VHH 2D2 (VHH)
VHH: AVQLVDSGGGLVQAGGSLRLSCAVSGGTFSSIGMGWFRQAPGKEREFVGAISRSGDSTYYADSVKGRFTISRDGAKNTVYLQMNSLKDEDTAVYYCAGRPAGTAINIRRSYNYWGQGTQVTVSS
notes: from WO2006/40153, made and purified like the other VHHs
As to B3, the EC50 is 4.7 nM in assay [6], 15.8 nM in [7], 4.7 nM in assay [8] and 15.8 nM in [9]. Moreover, in assay [10], the “Aggregation inhibition (% inhibition at 26 µM)” value was determined as 69%. Moreover, the IC50 in [11] and in assay [12] was 404 nM each time.

B4: ABII60G11 (VHH)
VHH: EVQLVESGGGSEQAGGSLRLSCATSGRAFSVYAWFRQAPGKERTFVAAVAWVGGSTFYSDSVKGRFTISRDNAKNTVFLHMNSLKPEDTAAYYCAARLYGGRWYNSPRVDDFEYWGQGTQVTVSS
Take B4: the figures for the EC50 in [6] and in [7] were 6 nM and 187 nM, respectively. Moreover, the binding result with A-beta(12-28) peptide is listed as “binds”. Moreover, the IC50 in [13] came out at 34.4 nM. Further, the koff in assay [14] amounted to 0.027 s⁻¹.

B5: ABII42D4 (VHH)
VHH: EVQLVESGGGLVLAGGSLRLSCVHSGPTFSTDTMGWFRQAPGKEREFVAAVTWNSGRTNYADSVKGRFTVSRDNTRNAAYLQMSGLKDEDTAVYYCTAHRLVVGGTSVGDWRYWGQGTQVTVSS
notes: also called ABIIPMP42D4
For B5, the EC50 in assay [6] came out at 0.9 nM; in assay [7], 14.2 nM; in assay [8], 0.9 nM; in [9] it was 14.2 nM. The “fold improved IC50 against reference VHH 2G6” value in [15] was no less than 21 fold. Besides, the IC50 was 46.8 nM in assay [16]; 44 nM in assay [17]; 46.8 nM in assay [18]; 51 nM in assay [19]; greater than 1000 nM in [20]. The binding result with A-beta(1-16) peptide is on record as “binds”. In assay [21], this molecule had a dissociation constant Kd of 16 nM. Also, in assay [14], the koff worked out at 0.0061 s⁻¹.

B6: ABII111B5_M107R = ABII002 (VHH)
VHH: B5 VHH with S30R, T58I, L101F, T106N, S107R, G109E
notes: myc-tagged in ELISA
B6: the “fold difference mouse against human A-beta” value in assay [22] was determined as 1.8 fold. In assay [23], the “fold improvement of IC50 and KD over original ABII42D4” value is greater than 10 fold. In addition, the IC50 in assay [2] was 2.9 nM; in assay [17], 2.9 nM; in assay [26], 2 nM. Also, the values for the 50% effective concentration (EC50) in assay [24] and in [25] were 1.8 nM and 3.3 nM, respectively.

B7: ABII60A10 = ABII050 (VHH)
VHH: EVQLVESGGGLVQAGGSLRLSCAASGRTFNNYNMGWFRQAPGKEREFVAAVSRSGVSTYYADSVKGRFTISRDNAKNAVYLQMNSLKPEDTAIYYCGAAYRGTAINVRRSYDSWGQGTQVTVSS
Consider B7, for which the EC50 in assay [6] amounted to 0.8 nM; in assay [7], 4.9 nM; in [8] it was 0.8 nM; in assay [9], 4.9 nM. For the same molecule, the “fold improved IC50 against reference VHH 2D2” value in [15] came to 36 fold. Besides, in [27], the “inhibition of peptide aggregation (ThT fluorescence), 28 µM VHH” value came out at 80%. Besides, the IC50 in assay [16] was 11.1 nM; in assay [28], 19 nM; in [3], 6.3 nM; in [19] it was greater than 1000 nM; in assay [13], 11.1 nM; in assay [20], 30 nM. In assay [29], this molecule had an IC50 of 19 nM. Also, the “Aggregation inhibition (% inhibition at 26 µM)” value in assay [10] worked out at 80%. The binding result in the assay with A-beta(12-28) peptide was “binds”.

B8: ABII059 (VHH)
VHH: B7 VHH with V5L, A14P, E44G, A75S, A78T, K87R, I93V, G97A, D112S, Q119L
notes: humanized variant of ABII050
As to B8, in assay [30], the binding result is “binds”. Moreover, the “fold difference of EC50 against the 2D2 and 2G6 VHHs” value in [31] was greater than 50 fold. In addition, the “Aggregation inhibition (% inhibition at 26 µM)” value in assay [10] was 80%. For the same molecule, the concentration for half-maximal inhibition (IC50) in assay [28] came to 33 nM; in assay [3] it was 12.8 nM; in assay [29], 33 nM.

The term IC50 denotes the concentration at which inhibition is half-maximal. Usually Kd stands for a measure of binding affinity in units of concentration. A high value points to a looser complex. The EC50 is the concentration that produces a half-maximal response. Read a low EC50 as greater potency. The koff is a measure of how fast the partners let go of each other. Low values mean slow dissociation, high ones fast dissociation.

(Values after patent US20120058118A1 (Boehringer Ingelheim, published 2012).)
